# B1: BRCT-containing protein 1 (Schizosaccharomyces pombe (strain ATCC 38366 / 972)), Q10337 (parent)
# chain: MLAAESSNKELFIKNDGKALSFPYDWKLATHVICDDFSSPNVQEGSKRSLRLAKTNWIRDCVDKNTLLNYSFYSCNPYLLFKGICASSCQIDSYQSSLIDDALETFGGRFSKGLMKSMTHLFTYSGMGAKCKKVLDKPSLSIKLIHPQWLLDCLQFGQLIDQDPYLFPNPSYKKNDSSISKAEPTSLFRNVLHGKRIYFSNDLNLPTNFRHSLQKFSVGIGAKIAESINDCDIFIGLKRDTIEFNLASNKNTTIGTISWLLNLFVLGSWKSPLLNALHYPFPSVGFLKDQMVAVTNYTDAARIYLEKLLLACGATYTKDLKPTNTLLIAASSYGQKYGAAKVWNIPTVHHSWLYSSFKNLSSQAFTDFPVPLDDSYMDFIFPCPLNVEKGSFEDTLKSSLTKGNSEVLLDDLSDPSVSSIKGNKTNEELEKEFKSTSDNFGKHIILTSSFSNQSADKGSSLAAEDDRNDEGSTITGVNRELQDEGRLEIDAKSSKTNTPPSPLLVGTPSKESLKEASSDDELPVLATKLVDNVIKEKSPLSLTPKVVVPSHKETYTDEKKLIDELDRVNPLNSSQLLRSKRKSAATALSMLQNVIMPDVLAFEREKKRRQTHRSVSSGEVSRESSESRNTNAKASKRVYITFTGYDKKPSIDNLKKLDMSITSNPSKCTHLIAPRILRTSKFLCSIPYGPCVVTMDWINSCLKTHEIVDEEPYLLNDPEKELELGCTLESALKRARAQGPSLLEDYVVYLTSKTVAPENVPAVISIVKSNGGVCSTLNVYNKRLARHLEDGNVVLITCNEDSHIWTNFLDNASQNKTIFLQNYDWLIKTVLRQEIDVNDRIADEFARAV
# Variants of: B1
# Settings: with h2a1_schpo hta1, P04909
row,effect of a mutation on the interaction,Variant
1,disrupting interaction,T643A

# Source: IntAct's records for PubMed 20094029
